Assay [1] has as its target T1, mFc-hNKG2D (human, UniProt P26718 73-216).
T1 construct: extracellular domain; Made in house (Dragonfly Tx); the order of tag and ECD follows the name mFc-hNKG2D; also called mFc-tagged human NKG2D; not shown: mouse Fc tag
T1 sequence (looked up): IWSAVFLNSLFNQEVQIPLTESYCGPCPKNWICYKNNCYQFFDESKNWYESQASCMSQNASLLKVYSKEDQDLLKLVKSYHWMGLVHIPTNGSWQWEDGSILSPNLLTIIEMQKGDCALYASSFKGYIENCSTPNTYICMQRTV
In words: SPR Biacore 8K 37 C; mFc-hNKG2D captured on anti-mFc chip, TriNKET as analyte; 1:1 kinetic fit; pH 8.0 control.

Assay [2] addresses T2, Human CLEC12A-His (recombinant, K244 WT) (human, UniProt Q5QGZ9 65-265).
T2 construct: Made in house (Dragonfly Tx); also called hCLEC12A; hCLEC12A-His; not shown: His tag
T2 sequence: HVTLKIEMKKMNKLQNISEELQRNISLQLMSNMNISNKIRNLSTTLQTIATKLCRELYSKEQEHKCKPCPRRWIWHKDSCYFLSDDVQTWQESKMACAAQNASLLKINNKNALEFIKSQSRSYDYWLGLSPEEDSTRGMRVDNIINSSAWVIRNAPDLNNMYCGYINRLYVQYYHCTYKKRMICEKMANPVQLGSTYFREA
Nature of the assay: SPR, two-state fit (ka1); control sample. (SPR reads the build-up and loss of mass on a sensor chip optically.)

Assay [3] deals with T3, Human CD16a V158 (human, UniProt P08637 17-208, biotinylated).
T3 construct: Bought recombinant receptor; also called hCD16a (V158); hFcγRIIIa V158
Nature of the assay: SPR, summary of FcγR affinities.

The target in assay [4] is T4, Human CD16a F158 (human, UniProt P08637 17-208, biotinylated).
T4 construct: Bought recombinant receptor; also called hFcγRIIIa F158
In words: SPR, summary of FcγR affinities.

Assay [5] concerns the target T5, Cynomolgus CD16 (cynomolgus monkey, UniProt Q8SPW2 17-208, biotinylated).
T5 construct: Bought recombinant receptor; also called cFcγRIII; Cynomolgus FcγRIII
Nature of the assay: SPR, summary of FcγR affinities.

Assay [6] concerns the target T6, Human CD64 (human, UniProt P12314 16-288, biotinylated).
T6 construct: Bought recombinant receptor; also called hFcγRI; Human CD64 (FcγRI)
In words: SPR, summary of FcγR affinities.

For assay [7], the target named is T7, Cynomolgus CD64 (cynomolgus monkey, UniProt A0A2K5U901 33-309, Probably biotinylated for capture, as in the sister examples (p-1094).).
T7 construct: Bought recombinant receptor; also called cFcγRI; Cynomolgus CD64 (FcγRI); not shown: The vendor's biotinylation and purification tag
Nature of the assay: SPR, summary of FcγR affinities.

Assay [8] addresses T8, Human CD32a H131 (human, UniProt P12318 36-218, limits assumed, biotinylated).
T8 construct: Bought recombinant receptor; also called hFcγRIIa H131
T8 sequence (looked up): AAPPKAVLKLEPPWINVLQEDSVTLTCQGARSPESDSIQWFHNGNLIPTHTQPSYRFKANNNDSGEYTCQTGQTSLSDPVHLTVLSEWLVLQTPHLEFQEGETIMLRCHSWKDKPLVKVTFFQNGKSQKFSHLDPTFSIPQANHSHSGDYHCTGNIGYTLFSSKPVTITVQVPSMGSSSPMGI
In words: SPR, summary of FcγR affinities.

Assay [9] concerns the target T9, Human CD32a R131 (human, UniProt P12318 36-218, limits assumed, biotinylated).
T9 construct: Bought recombinant receptor; also called hFcγRIIa R131
T9 sequence (looked up): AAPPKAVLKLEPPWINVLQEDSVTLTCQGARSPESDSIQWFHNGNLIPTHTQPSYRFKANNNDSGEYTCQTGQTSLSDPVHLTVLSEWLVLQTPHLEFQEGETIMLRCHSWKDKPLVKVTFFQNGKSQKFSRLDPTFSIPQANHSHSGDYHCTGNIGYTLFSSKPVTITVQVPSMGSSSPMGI
Nature of the assay: SPR, summary of FcγR affinities.

Assay [10] deals with T10, Human CD32b (human, UniProt P31994 46-217, limits assumed, biotinylated).
T10 construct: Bought recombinant receptor; also called hFcγRIIb
T10 sequence (looked up): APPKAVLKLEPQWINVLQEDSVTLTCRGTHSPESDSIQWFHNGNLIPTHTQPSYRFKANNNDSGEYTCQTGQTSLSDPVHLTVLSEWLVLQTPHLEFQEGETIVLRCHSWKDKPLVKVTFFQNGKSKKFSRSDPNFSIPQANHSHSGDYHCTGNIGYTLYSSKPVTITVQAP
Nature of the assay: SPR, summary of FcγR affinities.

Assay [11] deals with T11, Human CD16b (human, UniProt O75015 17-200, limits assumed, biotinylated).
T11 construct: Bought recombinant receptor; also called hFcγRIIIb
Nature of the assay: SPR, summary of FcγR affinities.

Assay [12] has as its target T3, Human CD16a V158. Nature of the assay: SPR, hCD16a V158 captured, kinetic fit.

What is called Kd is the free concentration of one partner at which half of the binding sites on the other are occupied at equilibrium, for simple one-to-one binding. Read a low Kd as a tighter complex. For orientation: koff means a measure of how fast the partners let go of each other. Low values mean a long-lived complex, high ones a short-lived complex. Usually kon stands for the second-order rate constant of association.

Several values for one entry are separate records, joined by “and”; a condition that tells them apart may be missing. Equal values may be shown once.

T3 sequence (P08637 17-208 F176V limits assumed): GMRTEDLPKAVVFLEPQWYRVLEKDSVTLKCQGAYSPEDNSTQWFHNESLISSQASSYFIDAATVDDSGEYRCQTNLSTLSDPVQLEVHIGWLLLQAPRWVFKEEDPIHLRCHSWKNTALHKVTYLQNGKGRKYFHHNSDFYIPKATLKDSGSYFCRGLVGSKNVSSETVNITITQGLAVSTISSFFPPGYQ
T6 sequence (P12314 16-288 limits assumed): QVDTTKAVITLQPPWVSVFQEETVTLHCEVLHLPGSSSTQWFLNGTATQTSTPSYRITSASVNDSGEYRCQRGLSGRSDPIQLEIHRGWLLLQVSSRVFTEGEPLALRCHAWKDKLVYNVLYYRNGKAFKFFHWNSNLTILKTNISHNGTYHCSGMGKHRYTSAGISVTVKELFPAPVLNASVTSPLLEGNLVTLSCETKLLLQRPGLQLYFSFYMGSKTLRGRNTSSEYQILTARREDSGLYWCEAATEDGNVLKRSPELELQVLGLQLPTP
T7 sequence (A0A2K5U901 entry or part of it limits assumed): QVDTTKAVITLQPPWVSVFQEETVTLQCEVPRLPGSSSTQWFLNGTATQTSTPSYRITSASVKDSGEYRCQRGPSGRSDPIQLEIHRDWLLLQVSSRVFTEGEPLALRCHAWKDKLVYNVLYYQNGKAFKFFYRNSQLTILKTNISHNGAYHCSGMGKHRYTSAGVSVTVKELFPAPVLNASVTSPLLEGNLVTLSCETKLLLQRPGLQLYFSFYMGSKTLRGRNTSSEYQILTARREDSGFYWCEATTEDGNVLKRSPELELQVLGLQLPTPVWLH
T4 sequence (P08637 17-208 limits assumed): as the sequence (P08637 17-208 F176V limits assumed) above, with V160F counted along it
T5 sequence (Q8SPW2 17-208 limits assumed): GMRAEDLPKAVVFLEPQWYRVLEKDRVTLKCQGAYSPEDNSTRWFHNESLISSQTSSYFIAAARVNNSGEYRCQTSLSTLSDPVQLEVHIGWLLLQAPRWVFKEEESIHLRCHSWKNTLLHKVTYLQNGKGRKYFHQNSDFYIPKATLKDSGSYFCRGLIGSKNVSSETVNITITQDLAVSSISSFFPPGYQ
T11 sequence (O75015 17-200 limits assumed): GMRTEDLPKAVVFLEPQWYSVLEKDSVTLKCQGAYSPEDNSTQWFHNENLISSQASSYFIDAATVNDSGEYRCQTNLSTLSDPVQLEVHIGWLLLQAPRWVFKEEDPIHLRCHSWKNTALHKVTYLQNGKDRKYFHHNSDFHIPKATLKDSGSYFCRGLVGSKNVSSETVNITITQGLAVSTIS

B1: F3'-1602 TriNKET (bispecific antibody, human IgG1, kappa)
chain: QLQLQESGPGLVKPSETLSLTCTVSGFSLTNYGLHWIRQPPGKCLEWIGVIWSGGKTDYNPSLKSRVTISKDTSKNQFSLKLSSVQAADTAVYYCAKYDYDDSLDYWGQGTLVTVSSGGGGSGGGGSGGGGSGGGGSDIQMTQSPSSLSASVGDRVTITCHASQNINFWLSWYQQKPGKAPKLLIYEASNLHTGVPSRFSGSGSGTRFTLTISSLQPEDIATYYCQQSHSYPLTFGCGTKLEIKGSDKTHTCPPCPAPELLGGPSVFLFPPKPKDTLMISRTPEVTCVVVDVSHEDPEVKFNWYVDGVEVHNAKTKPREEQYNSTYRVVSVLTVLHQDWLNGKEYKCKVSNKALPAPIEKTISKAKGQPREPRVYTLPPCRDELTKNQVSLTCLVKGFYPSDIAVEWESNGQPENNYKTTPPVLVSDGSFTLYSKLTVDKSRWQQGNVFSCSVMHEALHNHYTQKSLSLSPG
heavy: EVQLVESGGGLVKPGGSLRLSCAASGFTFSSYSMNWVRQAPGKGLEWVSSISSSSSYIYYADSVKGRFTISRDNAKNSLYLQMNSLRAEDTAVYYCARGAPIGAAAGWFDPWGQGTLVTVSSASTKGPSVFPLAPSSKSTSGGTAALGCLVKDYFPEPVTVSWNSGALTSGVHTFPAVLQSSGLYSLSSVVTVPSSSLGTQTYICNVNHKPSNTKVDKKVEPKSCDKTHTCPPCPAPELLGGPSVFLFPPKPKDTLMISRTPEVTCVVVDVSHEDPEVKFNWYVDGVEVHNAKTKPREEQYNSTYRVVSVLTVLHQDWLNGKEYKCKVSNKALPAPIEKTISKAKGQPREPQVCTLPPSRDELTENQVSLTCLVKGFYPSDIAVEWESNGQPENNYKTTPPVLDSDGSFFLYSWLTVDKSRWQQGNVFSCSVMHEALHNHYTQKSLSLSPG
light: DIQMTQSPSSVSASVGDRVTITCRASQGISSWLAWYQQKPGKAPKLLIYAASSLQSGVPSRFSGSGSGTDFTLTISSLQPEDFATYYCQQGVSFPRTFGGGTKVEIKRTVAAPSVFIFPPSDEQLKSGTASVVCLLNNFYPREAKVQWKVDNALQSGNSQESVTEQDSKDSTYSLSSTLTLSKADYEKHKVYACEVTHQGLSSPVTKSFNRGEC
notes: Trispecific F3' format: CLEC12A scFv-Fc paired with NKG2D Fab-Fc; Stressed and control samples of the stability studies are the same molecule; also called AB0237
In [1], B1 came in with a Kd of 694 nM, a koff of 0.125 s⁻¹ and a kon of 180000 M⁻¹ s⁻¹.

B2: AB0089 TriNKET (bispecific antibody, human IgG1, kappa)
chain: QLQLQESGPGLVKPSETLSLTCTVSGFSLTNYGLHWIRQPPGKCLEWIGVIWVGGATDYNPSLKSRVTISVDTSKNQFSLKLSSVQAADTAVYYCAKGDYGDTLDYWGQGTLVTVSSGGGGSGGGGSGGGGSGGGGSDIQMTQSPSSLSASVGDRVTITCHASQNINFWLSWYQQKPGKAPKLLIYEASNLHTGVPSRFSGSGSGTDFTLTISSLQPEDFATYYCQQSHSYPLTFGCGTKLEIKGSDKTHTCPPCPAPELLGGPSVFLFPPKPKDTLMISRTPEVTCVVVDVSHEDPEVKFNWYVDGVEVHNAKTKPREEQYNSTYRVVSVLTVLHQDWLNGKEYKCKVSNKALPAPIEKTISKAKGQPREPRVYTLPPCRDELTKNQVSLTCLVKGFYPSDIAVEWESNGQPENNYKTTPPVLVSDGSFTLYSKLTVDKSRWQQGNVFSCSVMHEALHNHYTQKSLSLSPG
heavy: EVQLVESGGGLVKPGGSLRLSCAASGFTFSSYSMNWVRQAPGKGLEWVSSISSSSSYIYYADSVKGRFTISRDNAKNSLYLQMNSLRAEDTAVYYCARGAPIGAAAGWFDPWGQGTLVTVSSASTKGPSVFPLAPSSKSTSGGTAALGCLVKDYFPEPVTVSWNSGALTSGVHTFPAVLQSSGLYSLSSVVTVPSSSLGTQTYICNVNHKPSNTKVDKKVEPKSCDKTHTCPPCPAPELLGGPSVFLFPPKPKDTLMISRTPEVTCVVVDVSHEDPEVKFNWYVDGVEVHNAKTKPREEQYNSTYRVVSVLTVLHQDWLNGKEYKCKVSNKALPAPIEKTISKAKGQPREPQVCTLPPSRDELTENQVSLTCLVKGFYPSDIAVEWESNGQPENNYKTTPPVLDSDGSFFLYSWLTVDKSRWQQGNVFSCSVMHEALHNHYTQKSLSLSPG
light: DIQMTQSPSSVSASVGDRVTITCRASQGISSWLAWYQQKPGKAPKLLIYAASSLQSGVPSRFSGSGSGTDFTLTISSLQPEDFATYYCQQGVSFPRTFGGGTKVEIKRTVAAPSVFIFPPSDEQLKSGTASVVCLLNNFYPREAKVQWKVDNALQSGNSQESVTEQDSKDSTYSLSSTLTLSKADYEKHKVYACEVTHQGLSSPVTKSFNRGEC
notes: F3' format heterodimer of three chains; human IgG1 Fc with EW-RVT and Y349C/S354C mutations; also called AB0089 Lot AB0089-002; CLEC12A TriNKET AB0089
For the molecule B2, in assay [2], the kon came out at 8.87e+06 M⁻¹ s⁻¹.

B3: AB0192 TriNKET (other)
chain: EVQLVESGGGVVQPGGSLRLSCAASGFTFNAFGMHWVRQAPGKCLEWVAFISSGSTSIYYANTVKGRFTISRDNSKNTLYLQMNSLRAEDTAVYYCARDGYPTGGAMDYWGQGTSVTVSSGGGGSGGGGSGGGGSGGGGSDIQMTQSPSSLSASVGDRVTITCKASQDIYNYLSWFQQKPGKAPKPLIYRANILVSGVPSRFSGSGSGQDYTFTISSLQPEDIATYYCLQFDAFPFTFGCGTKLEIKGSDKTHTCPPCPAPELLGGPSVFLFPPKPKDTLMISRTPEVTCVVVDVSHEDPEVKFNWYVDGVEVHNAKTKPREEQYNSTYRVVSVLTVLHQDWLNGKEYKCKVSNKALPAPIEKTISKAKGQPREPRVYTLPPCRDELTKNQVSLTCLVKGFYPSDIAVEWESNGQPENNYKTTPPVLVSDGSFTLYSKLTVDKSRWQQGNVFSCSVMHEALHNHYTQKSLSLSPG
heavy: EVQLVESGGGLVKPGGSLRLSCAASGFTFSSYSMNWVRQAPGKGLEWVSSISSSSSYIYYADSVKGRFTISRDNAKNSLYLQMNSLRAEDTAVYYCARGAPIGAAAGWFDPWGQGTLVTVSSASTKGPSVFPLAPSSKSTSGGTAALGCLVKDYFPEPVTVSWNSGALTSGVHTFPAVLQSSGLYSLSSVVTVPSSSLGTQTYICNVNHKPSNTKVDKKVEPKSCDKTHTCPPCPAPELLGGPSVFLFPPKPKDTLMISRTPEVTCVVVDVSHEDPEVKFNWYVDGVEVHNAKTKPREEQYNSTYRVVSVLTVLHQDWLNGKEYKCKVSNKALPAPIEKTISKAKGQPREPQVCTLPPSRDELTENQVSLTCLVKGFYPSDIAVEWESNGQPENNYKTTPPVLDSDGSFFLYSWLTVDKSRWQQGNVFSCSVMHEALHNHYTQKSLSLSPG
light: DIQMTQSPSSVSASVGDRVTITCRASQGISSWLAWYQQKPGKAPKLLIYAASSLQSGVPSRFSGSGSGTDFTLTISSLQPEDFATYYCQQGVSFPRTFGGGTKVEIKRTVAAPSVFIFPPSDEQLKSGTASVVCLLNNFYPREAKVQWKVDNALQSGNSQESVTEQDSKDSTYSLSSTLTLSKADYEKHKVYACEVTHQGLSSPVTKSFNRGEC
notes: the condition stands under assay; also called AB0192 Lot AB0192-005
For the molecule B3, the Kd in assay [3] stood at 178 nM; in assay [4], 680 nM; in [5], 204 nM; in assay [6], 5.2 nM; in assay [7] it was 1.9 nM; in assay [8], 1010 nM. Moreover, the Kd is 1400 nM in assay [9]; 6.06 µM in assay [10]; 6.01 µM in [11]; 184 nM and 173 nM and 177 nM in assay [12]. Further, the koff in assay [12] was 0.019 s⁻¹ and 0.0201 s⁻¹ and 0.0206 s⁻¹. Further, the kon in assay [12] was 103000 M⁻¹ s⁻¹ and 116000 M⁻¹ s⁻¹.

The record behind these values is patent US20220119534A1 (DRAGONFLY THERAPEUTICS, published 2022).
